Patent publication US11661461B2, “Phospho-Rab antibodies, assays and methods of use thereof” (Denali Therapeutics Inc., priority 2017, dated 2023)
Where a chain is given by its changes, count along the chain named. Blank lines part the entries; values can stand above or below the molecule they belong to.

Legend:
LRRK2 = target: T1, LRRK2 (Rattus norvegicus, UniProt F1LNJ1); assay: 10-day oral dosing study in rats, pT73-Rab10 and pS935-LRRK2 western blot; type: in vivo; details: for pT73-Rab10, Brain / pT73-Rab10, Lung / pS935-LRRK2, Brain / pS935-LRRK2, Lung: rats, daily oral 10 days, mean with SEM; for pT73-Rab10, Brain / pT73-Rab10, Lung: normalized to actin and vehicle control group; for pS935-LRRK2, Brain / pS935-LRRK2, Lung: normalized to vinculin and vehicle control group
T1 construct: from tissue; host or cells: rat brain and lung (in vivo dosing)
Method: Dose-dependent inhibition of pT73-Rab10 was tested in a 10-day oral dosing study in rats. Rats were dosed daily with the LRRK2 Inhibitor B at a dose of 10 mg/kg, 30 mg/kg, or 45 mg/kg. Tissues (brain and lung) were harvested, homogenized and analyzed by western blot. […] Signals from dosed groups were normalized to vehicle control group. Data were presented as mean with SEM.

[1] = target: T2, phosphorylated Rab10 in lysates of HEK cells overexpressing LRRK2 (Homo sapiens, UniProt P61026); assay: Sandwich ELISA (diagnostic), HEK cells overexpressing LRRK2; type: binding; details: for Sandwich ELISA (diagnostic), Ratio: DMSO / LRRK2 inhibitor A RLU; for Sandwich ELISA (diagnostic) HEK cells overexpressing LRRK2, DMSO (RLU mean ± SD): DMSO treated cells; for Sandwich ELISA (diagnostic) HEK cells overexpressing LRRK2, LRRK2 inhibitor A (RLU mean ± SD): cells treated with LRRK2 inhibitor A
T2 construct: expressed in transfected cells; host or cells: HEK cells overexpressing LRRK2
T2 sequence (P61026 1-200): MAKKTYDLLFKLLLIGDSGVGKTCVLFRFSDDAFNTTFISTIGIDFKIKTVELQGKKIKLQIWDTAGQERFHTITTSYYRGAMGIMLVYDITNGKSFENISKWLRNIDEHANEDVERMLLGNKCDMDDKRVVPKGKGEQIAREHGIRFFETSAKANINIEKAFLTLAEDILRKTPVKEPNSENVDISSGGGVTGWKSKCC
Method: Sandwich ELISA (Diagnostic) with Anti-Phospho-Rab10 Antibody as the Capture Antibody:
ELISA plates were prepared by coating white Nunc MaxiSorp 384 well plates (Thermo Fisher #460372/Sigma #P6491) with capture antibody for 1 hour at room temperature on a shaking platform. The capture antibody was purified anti-phospho-Rab10 clone 19-4 diluted to 1 ug/mL in carbonate-bicarbonate buffer, and 15 uL/well of coating solution was added to the plate before incubation. Plates were then washed 3× with TBST on a BioTek plate washer. For all subsequent blocking/incubation steps, Pierce Starting Block T20 (TBS) was used (Thermo Fisher #37543). Plates were blocked […] in this solution using 80 uL/well and washed 3× as before. Afterwards samples of cell lysates were added (neat with no dilution) using 30 uL/well and incubated 1 hour at room temperature on a shaking platform. After another 3× wash detection antibody (Creative Diagnostics DCABH 13141, or Abcam, ab104859, 2 ug/mL) was added using 30 uL/well. After 60 minute incubation at room temperature and washing 3×, the secondary anti-species conjugate was added (anti-rabbit HRP antibody (Jackson ImmunoResearch 111-035-144) diluted 1:20000 in assay diluent) at 30 uL/well. After a 60 minute incubation, plates were washed 3× as before. The HRP substrate (Supersignal ELISA Femto HRP substrate—Thermo Fisher #37075) was prepared during this time by mixing both components and equilibrating to room temperature. 50 uL/well of substrate was added to plates, which then were covered and briefly incubated for 1-2 minutes on a shaker platform. Afterwards plates were read on the Synergy plate reader to measure relative light units (RLU).
Sandwich ELISA (Diagnostic) with Anti-Rab10 (Total) Antibody as the Capture Antibody:
ELISA plates were prepared by coating white Nunc MaxiSorp 384 well plates (Thermo Fisher #460372/Sigma # P6491) with capture antibody overnight at 4° C. on a shaking platform. The capture antibodies (anti-Rab10 antibody from either Creative Diagnostics, DCABH-13141, or Abcam, ab104859) were diluted to […] (or 1:100 if the concentration not known) in carbonate-bicarbonate buffer, and 15 uL/well of coating solution was added to the plate before incubation. After this plates were washed 3× with TBST on a BioTek plate washer. For all subsequent blocking/incubation steps, Pierce Starting Block (TBS) (no Tween added) was used (Thermo Fisher #37542). Plates were blocked for 1 hour at room temperature in this solution using 80 uL/well and washed 3× as before. Afterwards samples were added (with lysates being diluted 1:20 in the assay diluent) using 30 uL/well and incubated 2 hours at room temperature on a shaking platform. After another 3× wash detection antibodies were added (diluted to 1 ug/mL for purified antibodies or 1:2 for supernatants) using 30 uL/well. After 90 minute incubation at room temperature and washing 3× the secondary anti-species conjugate was added (anti-rabbit HRP antibody (Jackson ImmunoResearch 111-035-144) diluted 1:20000 in assay diluent) at 30 uL/well. After a 45 minute incubation plates were washed 3× as before. The HRP substrate (Supersignal ELISA Femto HRP substrate—Thermo Fisher #37075) was prepared during this time by mixing both components and equilibrating to room temperature. 50 uL/well of substrate was added to plates, which then were covered and briefly incubated for 1-2 minutes on a shaker platform. Afterwards plates were read on the Synergy plate reader to measure relative light units (RLU).

[2] = target: T3, endogenous phosphorylated Rab10 in human PBMC (Homo sapiens, UniProt P61026); assay: Western blot of human PBMC with anti-pT73-Rab10 antibodies; type: binding; details: for detection of endogenous phosphorylated Rab10 signals in human PBMC by western blot: antibody at 1 ug/ml; for Western blot Human PBMC Ratio of DMSO/LRRK2 inhibitor A (mean ± SEM): band intensity normalized with Actin control for each of DMSO and LRRK2 inhibitor A, antibody 1 ug/ml
T3 construct: Strong endogenous phosphorylated Rab10 or phosphorylated Rab8a in human PBMC; host or cells: human PBMC
T3 sequence (P61026 1-200): T2 sequence (P61026 1-200)

T1 sequence (F1LNJ1 1-2526): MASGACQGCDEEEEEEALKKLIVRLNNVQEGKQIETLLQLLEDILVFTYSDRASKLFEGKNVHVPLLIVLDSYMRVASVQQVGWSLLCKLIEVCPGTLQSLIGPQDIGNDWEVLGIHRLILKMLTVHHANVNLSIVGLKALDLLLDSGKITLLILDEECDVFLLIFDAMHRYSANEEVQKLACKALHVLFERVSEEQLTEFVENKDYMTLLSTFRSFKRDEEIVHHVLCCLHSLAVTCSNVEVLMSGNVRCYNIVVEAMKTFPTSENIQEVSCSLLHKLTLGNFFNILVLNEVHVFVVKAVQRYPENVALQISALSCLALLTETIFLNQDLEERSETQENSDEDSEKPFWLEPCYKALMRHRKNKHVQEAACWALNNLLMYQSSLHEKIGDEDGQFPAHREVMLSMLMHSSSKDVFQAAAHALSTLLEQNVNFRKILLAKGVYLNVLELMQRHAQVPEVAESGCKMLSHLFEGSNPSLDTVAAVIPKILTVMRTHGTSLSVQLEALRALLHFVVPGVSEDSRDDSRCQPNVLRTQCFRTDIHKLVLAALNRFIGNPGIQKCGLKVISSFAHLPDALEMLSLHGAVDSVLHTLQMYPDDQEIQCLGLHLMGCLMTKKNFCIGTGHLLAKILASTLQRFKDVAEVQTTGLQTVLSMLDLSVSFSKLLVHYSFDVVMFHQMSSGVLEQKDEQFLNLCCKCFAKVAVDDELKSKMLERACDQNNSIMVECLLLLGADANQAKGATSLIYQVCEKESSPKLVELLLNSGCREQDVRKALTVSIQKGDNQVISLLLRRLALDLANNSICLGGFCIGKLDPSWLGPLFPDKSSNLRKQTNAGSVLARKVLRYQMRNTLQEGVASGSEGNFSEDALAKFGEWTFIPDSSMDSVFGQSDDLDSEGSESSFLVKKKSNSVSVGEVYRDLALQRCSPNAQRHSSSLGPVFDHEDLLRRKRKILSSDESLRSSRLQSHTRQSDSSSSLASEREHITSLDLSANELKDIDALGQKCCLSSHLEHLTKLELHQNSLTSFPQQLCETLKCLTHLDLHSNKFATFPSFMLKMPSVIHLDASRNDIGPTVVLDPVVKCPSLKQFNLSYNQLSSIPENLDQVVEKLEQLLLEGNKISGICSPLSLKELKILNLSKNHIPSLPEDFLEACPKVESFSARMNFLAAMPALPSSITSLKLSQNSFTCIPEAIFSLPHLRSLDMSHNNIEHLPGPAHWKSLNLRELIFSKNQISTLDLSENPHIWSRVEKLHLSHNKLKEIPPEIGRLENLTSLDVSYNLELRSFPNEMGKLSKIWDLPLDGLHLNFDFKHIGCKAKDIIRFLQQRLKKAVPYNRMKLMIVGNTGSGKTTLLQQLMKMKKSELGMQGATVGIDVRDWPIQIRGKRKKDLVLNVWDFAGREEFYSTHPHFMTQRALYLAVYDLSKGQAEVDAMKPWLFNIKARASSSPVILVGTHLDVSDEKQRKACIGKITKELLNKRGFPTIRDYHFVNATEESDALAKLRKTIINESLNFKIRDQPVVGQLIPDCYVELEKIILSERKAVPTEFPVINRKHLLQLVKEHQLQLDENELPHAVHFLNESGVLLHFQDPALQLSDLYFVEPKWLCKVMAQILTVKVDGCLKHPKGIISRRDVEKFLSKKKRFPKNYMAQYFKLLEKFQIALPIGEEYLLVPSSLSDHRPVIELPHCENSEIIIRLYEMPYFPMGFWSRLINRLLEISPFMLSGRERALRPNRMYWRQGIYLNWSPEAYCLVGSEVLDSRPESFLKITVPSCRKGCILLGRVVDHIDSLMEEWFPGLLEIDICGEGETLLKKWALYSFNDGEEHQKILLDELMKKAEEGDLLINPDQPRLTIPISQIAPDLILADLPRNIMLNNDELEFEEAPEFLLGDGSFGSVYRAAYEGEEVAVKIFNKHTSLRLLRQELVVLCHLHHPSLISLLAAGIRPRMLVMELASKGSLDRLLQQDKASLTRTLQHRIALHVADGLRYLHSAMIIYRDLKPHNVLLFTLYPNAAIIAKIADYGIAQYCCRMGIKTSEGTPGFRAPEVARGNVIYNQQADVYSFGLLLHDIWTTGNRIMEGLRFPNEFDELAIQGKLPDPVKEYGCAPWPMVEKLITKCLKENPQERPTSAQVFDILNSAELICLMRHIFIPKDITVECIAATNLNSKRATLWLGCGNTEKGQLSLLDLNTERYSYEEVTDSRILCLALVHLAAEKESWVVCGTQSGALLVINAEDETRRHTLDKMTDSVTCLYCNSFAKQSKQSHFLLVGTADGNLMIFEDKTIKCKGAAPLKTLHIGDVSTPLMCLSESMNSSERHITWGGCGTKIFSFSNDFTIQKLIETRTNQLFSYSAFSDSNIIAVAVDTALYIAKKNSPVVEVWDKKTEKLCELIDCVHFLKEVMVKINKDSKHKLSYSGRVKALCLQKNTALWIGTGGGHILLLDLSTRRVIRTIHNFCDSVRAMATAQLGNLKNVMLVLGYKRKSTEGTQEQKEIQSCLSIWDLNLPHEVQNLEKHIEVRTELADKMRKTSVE

- pT73-Rab10, Brain (LRRK2; High dose (doses 10, 30, 45 mg/kg), N = 5): 0.225 ± 0.0394
- pT73-Rab10, Lung (LRRK2; High dose): 0.109 ± 0.0126
- pS935-LRRK2, Brain (LRRK2; High dose): 0.04 ± 0.016
- pS935-LRRK2, Lung (LRRK2; High dose): 0.076 ± 0.022
- pT73-Rab10, Brain (LRRK2; Low dose (doses 10, 30, 45 mg/kg), N = 6): 0.676 ± 0.102
- pT73-Rab10, Lung (LRRK2; Low dose): 0.25 ± 0.0126
- pS935-LRRK2, Brain (LRRK2; Low dose): 0.693 ± 0.164
- pS935-LRRK2, Lung (LRRK2; Low dose): 0.295 ± 0.026
- pT73-Rab10, Brain (LRRK2; Medium dose (doses 10, 30, 45 mg/kg), N = 6): 0.268 ± 0.0745
- pT73-Rab10, Lung (LRRK2; Medium dose): 0.133 ± 0.0137
- pS935-LRRK2, Brain (LRRK2; Medium dose): 0.086 ± 0.021
- pS935-LRRK2, Lung (LRRK2; Medium dose): 0.094 ± 0.012
Molecule: CNc1nc(Nc2cn(C(C)(C)C#N)nc2C)ncc1C(F)(F)F [LRRK2 Inhibitor B, 2-methyl-2-(3-methyl-4-(4-(methylamino)-5-(trifluoromethyl)pyrimidin-2-ylamino)-1H-pyrazol-1-yl)propanenitrile]
- dephosphorylation of pS935-LRRK2 and pT73-Rab10 (LRRK2; rats, 10, 30 or 45 mg/kg daily oral, 10 days, brain and lung): comparable dose-dependent dephosphorylation

- Sandwich ELISA (diagnostic), Ratio [1]: 141.26
- Sandwich ELISA (diagnostic) HEK cells overexpressing LRRK2, DMSO (RLU mean ± SD) [1]: 596606 ± 80346 RLU
- Sandwich ELISA (diagnostic) HEK cells overexpressing LRRK2, LRRK2 inhibitor A (RLU mean ± SD) [1]: 4223 ± 293 RLU
B1: Clone 153-2: anti-phosphorylated (pT73) Rab10 rabbit monoclonal antibody; VH SEQ ID NO:39, VL SEQ ID NO:43 (antibody, V domains shown)
VH: METGLRWLLLVAVLKGVQCQSVEESGGRLVTPGTPLTLTCTASGFSLSTYYMSWVRQAPGKGLEWIGIINTGGIVHYANWVRGRFTISKTSTTVDLRITSPTAEDTATYFCARAYSADRLDLWGQGTLVTVSS
VL: MDTRAPTQLLGLLLLWLPGATFAAVLTQTPSPVSAAVGGTVTISCQSSESVYGNNRLSWYQQKPGQPPKLLMYYASTLASGVPSRFRGSGSGTQFTLTISDVQCDDAASYYCLGGYKRDSNNAFGGGTEVVVK

- Sandwich ELISA (diagnostic), Ratio [1]: 7.20
- Sandwich ELISA (diagnostic) HEK cells overexpressing LRRK2, DMSO (RLU mean ± SD) [1]: 13096 ± 1715 RLU
- Sandwich ELISA (diagnostic) HEK cells overexpressing LRRK2, LRRK2 inhibitor A (RLU mean ± SD) [1]: 1820 ± 276 RLU
B3: Clone 247-8: anti-phosphorylated (pT73) Rab10 rabbit monoclonal antibody; VH SEQ ID NO:47, VL SEQ ID NO:51 (antibody, V domains shown)
VH: METGLRWLLLVAVLKGVQCQSVEESGGRLVTPGTPLTLTCTVSGFSLSSYAMGWVRQAPGKGLEYIGIISRSGITYYATWAKGRFTISKASTTVDLRIASPTTEDTATFFCVRDYDSSGWSGFNIWGPGTLVTVSL
VL: MDTRAPTQLLGLLLLWLPGAICDPVMTQTPSSTSAAVGGTVTINCQSSQSVYGNNYLSWFQQKPGQPPKLLIYKASTLASGVPSRFKGSGSGTQFTLTISGVQCDDAATYYCAGAYSDNRVFGGGTEVVVK

- Sandwich ELISA (diagnostic), Ratio [1]: 77.37
- Sandwich ELISA (diagnostic) HEK cells overexpressing LRRK2, DMSO (RLU mean ± SD) [1]: 212085 ± 27432 RLU
- Sandwich ELISA (diagnostic) HEK cells overexpressing LRRK2, LRRK2 inhibitor A (RLU mean ± SD) [1]: 2741 ± 309 RLU
B5: Clone 256-6: anti-phosphorylated (pT73) Rab10 rabbit monoclonal antibody; VH SEQ ID NO:53, VL SEQ ID NO:56 (antibody, V domains shown)
VH: METGLRWLLLVAVLKGVQCQSVEESGGRLVTPGTPLTLTCTVSGFSLSNYAMVWVRQAPGKGLEYIGLISRSGVTYYATWAKGRFTISKASTTVDLKIASPTTGDTATYFCVRDYDANGWSGFTIWGPGTLVTVSA
VL: B3 VL with F60Y, G101D, V102L, Q103D, Y116A, N119T, V121F

Second part, the molecule before the results:

B2: Clone 5: anti-phosphorylated (pT73) Rab10 rabbit monoclonal antibody; VH SEQ ID NO:1, VL SEQ ID NO:5 (antibody, V domains shown)
VH: B5 VH with N49S, A117I
VL: MDTRAPTQLLGLLLWLPGAICDPVMTQTPSSTSAAVGGTVTINCQSSQSVYGNNYFSWYQQKPGQPPKLLIYKASTLASGVPSRFKGSGSGTQFTLTISDLECDDAATYYCAGAASDTRFFGGGTELVVN
- Sandwich ELISA (diagnostic), Ratio [1]: 23.63
- Sandwich ELISA (diagnostic) HEK cells overexpressing LRRK2, DMSO (RLU mean ± SD) [1]: 85175 ± 16412 RLU
- Sandwich ELISA (diagnostic) HEK cells overexpressing LRRK2, LRRK2 inhibitor A (RLU mean ± SD) [1]: 3604 ± 1165 RLU
- detection of endogenous phosphorylated Rab10 signals in human PBMC by western blot [2]: detected endogenous phosphorylated Rab signals
- Western blot Human PBMC Ratio of DMSO/LRRK2 inhibitor A (mean ± SEM) [2]: 3.45 ± 0.53

B4: Clone 19: anti-phosphorylated (pT73) Rab10 rabbit monoclonal antibody; VH SEQ ID NO:11, VL SEQ ID NO:13 (antibody, V domains shown)
VH: B5 VH with N49S, A117S, N118A
VL: MDTRAPTQLLGLLLLWLPGAICDPVMTQTPSSTSAAVGGTVTINCQSSQSVYGNNYLSWYQQKPGQPPKLLIYKASTLASGVPSRSVGSGSGTQFTLTISDLECDDAATYYCAGAASDTRFFGGGTELVVN
- detection of endogenous phosphorylated Rab10 signals in human PBMC by western blot [2]: detected endogenous phosphorylated Rab signals
- Western blot Human PBMC Ratio of DMSO/LRRK2 inhibitor A (mean ± SEM) [2]: 3.39 ± 0.89

B6: Clone 133-2: anti-phosphorylated (pT73) Rab10 rabbit monoclonal antibody; VH SEQ ID NO:31, VL SEQ ID NO:35 (antibody, V domains shown)
VH: METGLRWLLLVAVLKGVQCQEQLVESGGGLVQPEGSLTLTCKASGFDLSSHYYMCWVRQAPGKGLEWIVCISNGSGNTYYASWAKGRFTISKTSSTTVTLHMTSLTVADTATYFCARNFGSNYGDAFDPWGPGTLVTVSS
VL: MDTRAPTQLLGLLLLWLPGATFAQVLTQTPSPVSAAVGGTVTISCQSSKSVYSNNYLSWYQQKPGQPPKLLIYSASILASGVPSRFSGSGSGTQFTLTISGVQCDDAATYYCQGSYAGSGWYIGFGGGTEVVVK
- Sandwich ELISA (diagnostic), Ratio [1]: 2.25
- Sandwich ELISA (diagnostic) HEK cells overexpressing LRRK2, DMSO (RLU mean ± SD) [1]: 18605 ± 4874 RLU
- Sandwich ELISA (diagnostic) HEK cells overexpressing LRRK2, LRRK2 inhibitor A (RLU mean ± SD) [1]: 8265 ± 1428 RLU
